According to paper PMC5148741:

How the values were obtained:
Experiment in all cases: fluorescence polarisation
TbtF = target: TbtF
MBP-TbtD = target: MBP-TbtD
[1] = target: RRE of TbtF (residues 1–85)

TbtA M(−27)A (peptide)
IC50 (TbtF): 2.75 µM | IC50 (MBP-TbtD): 1.09 µM

TbtA P(−28)A (peptide)
IC50 (TbtF): 0.85 µM | IC50 (MBP-TbtD): 2.66 µM

synthetic TbtA leader peptide derivatized with fluorescein isothiocyanate (FITC) at the N-terminus
Kd [1]: 0.1 µM
